Measured values: paper PMC8278288 (Frontiers in Immunology, 2021)
Values belong to the binder of their own block, whether it stands above or below them.

How the values were obtained:
[1] = target: T1, IL-7 receptor ectodomain (rhIL-7Rα) (human, UniProt P16871 21-239); experiment: SPR
T1 chain: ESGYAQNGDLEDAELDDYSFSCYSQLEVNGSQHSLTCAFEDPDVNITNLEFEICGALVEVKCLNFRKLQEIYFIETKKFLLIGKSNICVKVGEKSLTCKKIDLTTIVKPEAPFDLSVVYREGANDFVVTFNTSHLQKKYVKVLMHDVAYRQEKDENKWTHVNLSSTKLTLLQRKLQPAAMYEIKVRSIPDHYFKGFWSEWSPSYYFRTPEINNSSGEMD

[2] = target: T2, N-terminal fragment of MMP-9-cleaved human IL-7 produced in HEK-293 cells (IL-7*) (human, UniProt P13232 26-128, N-linked oligosaccharides (sites shown in Figure 1D)); experiment: non-reducing SDS-PAGE; IL-7 digested with MMP-9, electrophoresis with SDS and without reducing agent, compared with reducing conditions; conditions: both partners purified
T2 construct: Interleukin-7, human, N-terminal fragment up to Ala128 (MMP-9 cleavage between Ala128 and Leu129); source: bought: Biolegend (produced in human HEK-293 cells), then digested with MMP-9
T2 sequence (looked up): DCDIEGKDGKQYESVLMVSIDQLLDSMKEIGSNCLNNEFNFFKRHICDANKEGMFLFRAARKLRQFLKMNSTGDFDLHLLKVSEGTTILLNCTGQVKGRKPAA

[3] = target: T3, N-terminal fragment of MMP-9-cleaved His-tagged human IL-7 produced in insect cells (IL-7*) (human, UniProt P13232 26-128, N-linked glycosylation (partially glycosylated; sites shown in Figure 1D)); experiment: pull-down; His-tagged IL-7 (C-terminal tag) digested with MMP-9, histidine tag pull-down with Ni-NTA magnetic microbeads under native conditions; bound and non-bound proteins resolved by reducing SDS-PAGE; conditions: both partners purified
T3 construct: Interleukin-7, human, N-terminal fragment up to Ala128 (MMP-9 cleavage between Ala128 and Leu129); also called N-terminal fragment of IL-7; source: bought: Novus (produced in insect cells), then digested with MMP-9
T3 sequence (looked up): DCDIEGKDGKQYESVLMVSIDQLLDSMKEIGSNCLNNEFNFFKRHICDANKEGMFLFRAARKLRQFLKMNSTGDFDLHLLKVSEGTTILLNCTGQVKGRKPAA

[4] = target: T4, N-terminal fragment of MMP-9-cleaved human IL-7 produced in E. coli (IL-7*) (human, UniProt P13232 26-128); experiment: non-reducing SDS-PAGE; IL-7 digested with MMP-9, electrophoresis with SDS and without reducing agent, compared with reducing conditions; conditions: both partners purified
T4 construct: Interleukin-7, human, N-terminal fragment up to Ala128 (MMP-9 cleavage between Ala128 and Leu129); source: bought: Peprotech (produced in E. coli), then digested with MMP-9
T4 sequence (looked up): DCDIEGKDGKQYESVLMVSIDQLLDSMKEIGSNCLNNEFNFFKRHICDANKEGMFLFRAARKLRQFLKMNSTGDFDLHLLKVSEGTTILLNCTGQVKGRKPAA

B2: C-terminal fragment of MMP-9-cleaved human IL-7 produced in HEK-293 cells (IL-7**) (domain or fragment, UniProt P13232 129-177, looked up)
chain: LGEAQPTKSLEENKSLKEQKKLNDLCFLKRLLQEIKTCWNKILMGTKEH
notes: Interleukin-7, human, C-terminal fragment from Leu129 (neo-N-terminus LGEAQ); source: bought: Biolegend (produced in human HEK-293 cells), then digested with MMP-9
binding result [2]: binds

B3: C-terminal fragment of MMP-9-cleaved His-tagged human IL-7 produced in insect cells (IL-7**) (domain or fragment, UniProt P13232 129-177, looked up)
chain: LGEAQPTKSLEENKSLKEQKKLNDLCFLKRLLQEIKTCWNKILMGTKEH
notes: Interleukin-7, human, C-terminal fragment from Leu129 (neo-N-terminus LGEAQ); Held on nickel beads by the C-terminal His tag; source: bought: Novus (produced in insect cells), then digested with MMP-9; not shown: His tag, C-terminal, kept
binding result [3]: binds

B4: MMP-9-cleaved recombinant human IL-7 produced in human HEK-293 cells (cIL-7) (complex)
chain 1: DCDIEGKDGKQYESVLMVSIDQLLDSMKEIGSNCLNNEFNFFKRHICDANKEGMFLFRAARKLRQFLKMNSTGDFDLHLLKVSEGTTILLNCTGQVKGRKPAA
chain 2: LGEAQPTKSLEENKSLKEQKKLNDLCFLKRLLQEIKTCWNKILMGTKEH
modifications: N-linked oligosaccharides (sites shown in Figure 1D)
Kd [1]: 290 nM

Further lines, results first:

Kd [1]: 64 nM
B1: MMP-9-cleaved recombinant human IL-7 produced in E. coli (cIL-7) (complex)
chain 1: DCDIEGKDGKQYESVLMVSIDQLLDSMKEIGSNCLNNEFNFFKRHICDANKEGMFLFRAARKLRQFLKMNSTGDFDLHLLKVSEGTTILLNCTGQVKGRKPAA
chain 2: LGEAQPTKSLEENKSLKEQKKLNDLCFLKRLLQEIKTCWNKILMGTKEH

binding result [4]: binds
B5: C-terminal fragment of MMP-9-cleaved human IL-7 produced in E. coli (IL-7**) (domain or fragment, UniProt P13232 129-177, looked up)
chain: LGEAQPTKSLEENKSLKEQKKLNDLCFLKRLLQEIKTCWNKILMGTKEH
notes: Interleukin-7, human, C-terminal fragment from Leu129 (neo-N-terminus LGEAQ); source: bought: Peprotech (produced in E. coli), then digested with MMP-9
